In patent EP0853661B1 one finds IC50 and TF1 cell proliferation assay IC50 (nM IgG) data, which are given here for one substance.

For test [1], the target named is TGFβ3 (transforming growth factor beta 3) (UniProt P10600). The test is described as follows: A549 cell radioreceptor assay, inhibition of 125I-TGFβ3 binding to receptors.
Test [2] deals with human TGFβ2 (transforming growth factor beta 2) (human) (UniProt P61812). The test can be described thus: A549 cell radioreceptor assay, inhibition of 125I-TGFβ2 binding to receptors.
Chain of human TGFβ2 (transforming growth factor beta 2) (human) (P61812 303-414): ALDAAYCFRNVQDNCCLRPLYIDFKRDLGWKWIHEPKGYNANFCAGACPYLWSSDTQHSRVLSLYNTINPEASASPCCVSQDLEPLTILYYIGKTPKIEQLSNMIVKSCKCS
Test [3] has the same target. The test can be described thus: cell-based or functional assay.
The target in test [4] is TGFβ3 (transforming growth factor beta 3) (UniProt P10600). The test can be described thus: cell-based or functional assay.
Test [5] addresses human TGFβ1 (transforming growth factor beta 1) (human) (UniProt P01137). The test is described as follows: cell-based or functional assay.
For test [6] the target is unchanged. The test can be described thus: A549 cell radioreceptor assay, inhibition of 125I-TGFβ1 binding to receptors.

Chain of human TGFβ1 (transforming growth factor beta 1) (human) (P01137 279-390 limits assumed): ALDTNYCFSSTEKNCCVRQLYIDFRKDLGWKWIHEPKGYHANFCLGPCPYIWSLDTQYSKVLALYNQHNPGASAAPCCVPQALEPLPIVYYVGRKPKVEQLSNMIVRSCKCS
Chain of TGFβ3 (transforming growth factor beta 3) (P10600 301-412 limits assumed): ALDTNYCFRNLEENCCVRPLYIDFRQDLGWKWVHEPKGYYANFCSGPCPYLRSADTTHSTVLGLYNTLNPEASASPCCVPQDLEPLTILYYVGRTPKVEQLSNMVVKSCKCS

On to “mouse monoclonal antibody from Genzyme (Mouse anti-TGF β1,2,3; J.R. Dasch et al.)”, for which the IC50 – broadly, the concentration needed to halve the response being measured – in test [1] was 0.03 nM; in test [2], 0.5 nM; in test [6], 0.55 nM. Besides, the figures for the TF1 cell proliferation assay IC50 (nM IgG) in test [3], in test [4] and in test [5] were 10 nM, 0.1 nM and 1.5 nM, respectively.
